Assay results taken from the supplement of paper PMC9233669.
This sample holds only a part of the variants without activity.

Experiments:
[1] = tested on: biotinyl-Phe-oxazolone; assay: self-aminoacylation, catalytic enhancement (BFO) (fold over background); higher = more active; k-Seq, kA / k0A0; sequences stand for … in GGGAAUGGAUCCACAUCUACGAAUUC…UUCACUGCAGACUUGACGAAGCUG
Outline: (§1)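 Each biotinyl-aminoacyl-oxazolone, at 2–1250 μM, was incubated with mutagenized RNA pools (0.43 μM) carrying a 21-nt variable region. The 50 μL reactions contained HEPES/NaCl/KCl/MgCl2/CaCl2 buffer with 5% acetonitrile at pH 6.9–7.0 and ran for 90 minutes at room temperature. After streptavidin capture, RNA was measured by qPCR in triplicate and by Illumina sequencing, and catalytic enhancement was calculated as median kA over the uncatalyzed rate from a pseudo-first-order fit of per-sequence fraction reacted.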

[2] = tested on: biotinyl-Ile-oxazolone; assay: self-aminoacylation, catalytic enhancement (BIO) (fold over background); higher = more active; k-Seq, kA / k0A0; sequences stand for … in GGGAAUGGAUCCACAUCUACGAAUUC…UUCACUGCAGACUUGACGAAGCUG
Outline: as §1

[3] = tested on: biotinyl-Met-oxazolone; assay: self-aminoacylation, catalytic enhancement (BMO) (fold over background); higher = more active; k-Seq, kA / k0A0; sequences stand for … in GGGAAUGGAUCCACAUCUACGAAUUC…UUCACUGCAGACUUGACGAAGCUG
Outline: as §1

[4] = tested on: biotinyl-Val-oxazolone; assay: self-aminoacylation, catalytic enhancement (BVO) (fold over background); higher = more active; k-Seq, kA / k0A0; sequences stand for … in GGGAAUGGAUCCACAUCUACGAAUUC…UUCACUGCAGACUUGACGAAGCUG
Outline: as §1

[5] = tested on: biotinyl-Leu-oxazolone; assay: self-aminoacylation, catalytic enhancement (BLO) (fold over background); higher = more active; k-Seq, kA / k0A0; sequences stand for … in GGGAAUGGAUCCACAUCUACGAAUUC…UUCACUGCAGACUUGACGAAGCUG
Outline: as §1

[6] = tested on: biotinyl-Trp-oxazolone; assay: self-aminoacylation, catalytic enhancement (BWO) (fold over background); higher = more active; k-Seq, kA / k0A0; sequences stand for … in GGGAAUGGAUCCACAUCUACGAAUUC…UUCACUGCAGACUUGACGAAGCUG
Outline: as §1

Sequence	self-aminoacylation [1]	self-aminoacylation [2]	self-aminoacylation [3]	self-aminoacylation [4]	self-aminoacylation [5]	self-aminoacylation [6]
AUUACCCAGGUCAUCGAGUAA [Fam2.1 aminoacylation ribozyme variant]	1.09	1.49	1.54	1.06	1.16	1.57
AUUACCCAGGUCAUCGAGUGA [Fam2.1 aminoacylation ribozyme variant]	22.8	3.21	5.79	3.55	6.08	6.89
AUUACCCCGCUCAUCGAGUGA [Fam2.1 aminoacylation ribozyme variant]	6.93	1.16	1.89	1.73	1.99	1.17
AUUACCCCGGACAUCGAGUGA [Fam2.1 aminoacylation ribozyme variant]	19.6	2.38	4.74	2.48	4.04	5.47
AUUACCCCGGCCAUCGAGUGA [Fam2.1 aminoacylation ribozyme variant]	20.7	2.68	4.03	4.34	5.86	5.24
AUUACCCCGGUAAUCGAGUGA [Fam2.1 aminoacylation ribozyme variant]	26.7	2.73	5.18	2.85	4.59	5.41
AUUACCCCGGUCACCGAGUGA [Fam2.1 aminoacylation ribozyme variant]	95.8	5.59	12.7	4.77	13	12.3
AUUACCCCGGUCAUCGAGUAA [Fam2.1 aminoacylation ribozyme variant]	5.28	1.53	1.2	1.26	1.9	2.01
AUUACCCCGGUCAUCGAGUCA [Fam2.1 aminoacylation ribozyme variant]	1.3	1.24	0.928	0.988	1.06	0.734
AUUACCCCGGUCUUCGAGUGA [Fam2.1 aminoacylation ribozyme variant]	29.3	3.2	4.71	3.4	4.72	6.46
AUUACCCCGGUGAUCGAGUGA [Fam2.1 aminoacylation ribozyme variant]	21.5	2.23	3.73	2.23	3.33	4.35
AUUACCCCGGUUAUCGAGUGA [Fam2.1 aminoacylation ribozyme variant]	32.1	2.72	6.01	2.74	6.39	5.95
AUUACCCGGCUCAUCGAGUGA [Fam2.1 aminoacylation ribozyme variant]	0.746	1.79	1.72	1.72	1.71	1.61
AUUACCCGGGUCAACGAGUGA [Fam2.1 aminoacylation ribozyme variant]	63.5	5.11	9.41	4.94	9.62	9.96
AUUACCCGGGUCAUAGAGUGA [Fam2.1 aminoacylation ribozyme variant]	71.4	4.55	9.33	4.45	9.4	10.4
AUUACCCGGGUCAUCAAGUGA [Fam2.1 aminoacylation ribozyme variant]	5.43	1.77	2.59	2.08	2.35	2.93
AUUACCCGGGUCAUCGACUGA [Fam2.1 aminoacylation ribozyme variant]	0.62	0.845	0.768	0.837	0.675	0.755
AUUACCCGGGUCAUCGAGGGA [Fam2.1 aminoacylation ribozyme variant]	3.47	1.46	1.32	1.32	1.61	0.834
AUUACCCGGGUCAUCGAGUGC [Fam2.1 aminoacylation ribozyme variant]	5.14	1.46	1.21	1.39	1.72	1.13
AUUACCCGGGUCAUCGAGUGU [Fam2.1 aminoacylation ribozyme variant]	10.8	2.33	3.48	2.11	3.19	3.42
AUUACCCGGGUCAUCGCGUGA [Fam2.1 aminoacylation ribozyme variant]	178	12	25.4	15.6	28.3	27.8
AUUACCCGGGUGAUCGAGUGA [Fam2.1 aminoacylation ribozyme variant]	46.1	3.2	7.21	4.2	7.76	8.54
AUUACCCUAAUCAUCGAGUGA [Fam2.1 aminoacylation ribozyme variant]	19.8	3.28	6.83	3.39	6.87	7.8
